Measurements taken from the supplement of paper PMC9112550, “Optimization of the antimicrobial peptide Bac7 by deep mutational scanning” (BMC Biology, 2022).

Each sequence was assayed on Escherichia coli TOP10 (assay: shrunken log2 fold change of peptide-encoding DNA abundance (4.5 h post-induction vs induction); higher = less antimicrobial activity (less host growth inhibition)). Details: time post-induction: 4.5 h; library: site-saturation at positions 5, 18, 19, 20.
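Also: peptides expressed intracellularly from a pBAD plasmid library in pooled LB shake-flask culture, induced with 0.3% L-arabinose, DNA abundance read by NGS, three biological replicates, DESeq2 with apeglm shrinkage.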

Point of comparison: RRIRFRPPRLPRPRPRPRASPRP, “shrunken log2 fold change” value 0.33. Against it:
- RRIRFRPPRLPRPRPRPVWYPRP — lower, -0.308
- RRIRKRPPRLPRPRPRPRHWPRP — lower, 0.0398
- RRIRLRPPRLPRPRPRPNCSPRP — lower, 0.121
- RRIRCRPPRLPRPRPRPSPHPRP — lower, -0.144
- RRIRRRPPRLPRPRPRPWTHPRP — lower, 0.0267
- RRIRYRPPRLPRPRPRPHHPPRP — lower, -0.38
- RRIRARPPRLPRPRPRPMVGPRP — higher, 0.548
- RRIRCRPPRLPRPRPRPKAHPRP — within 0.2 log units, 0.205
- RRIRHRPPRLPRPRPRPVKPPRP — lower, 0.0296
- RRIRIRPPRLPRPRPRPEMIPRP — lower, -0.0257
- RRIRCRPPRLPRPRPRPNMFPRP — lower, -0.529
- RRIRSRPPRLPRPRPRPEDMPRP — lower, -0.088
- RRIRIRPPRLPRPRPRPTYEPRP — lower, -0.458
- RRIRVRPPRLPRPRPRPHKIPRP — lower, -0.53
- RRIRLRPPRLPRPRPRPMPGPRP — within 0.2 log units, 0.437
- RRIRARPPRLPRPRPRPQQFPRP — lower, 0.097
- RRIRPRPPRLPRPRPRPMYCPRP — lower, -0.0366
- RRIRLRPPRLPRPRPRPDHYPRP — lower, 0.101
- RRIRSRPPRLPRPRPRPEIIPRP — lower, -0.0448
- RRIRNRPPRLPRPRPRPGGIPRP — lower, -0.109
- RRIRYRPPRLPRPRPRPINKPRP — lower, -1.43
- RRIRSRPPRLPRPRPRPFHSPRP — lower, -0.0807
- RRIRDRPPRLPRPRPRPYWWPRP — lower, 0.021
- RRIRQRPPRLPRPRPRPQIHPRP — lower, -0.246
- RRIRGRPPRLPRPRPRPRPDPRP — higher, 0.94
- RRIRWRPPRLPRPRPRPGIVPRP — higher, 0.585
- RRIRVRPPRLPRPRPRPRAWPRP — lower, 0.086
- RRIRQRPPRLPRPRPRPDVVPRP — lower, -0.01
- RRIRPRPPRLPRPRPRPDRKPRP — lower, -0.124
- RRIRHRPPRLPRPRPRPDNMPRP — higher, 3.69
- RRIRVRPPRLPRPRPRPVYVPRP — lower, -0.0177
- RRIRERPPRLPRPRPRPATRPRP — lower, 0.102
- RRIRARPPRLPRPRPRPKVIPRP — lower, 0.116
- RRIRMRPPRLPRPRPRPFDRPRP — lower, 0.00911
- RRIRHRPPRLPRPRPRPDMNPRP — lower, -0.178
- RRIRFRPPRLPRPRPRPVGKPRP — lower, 0.13
- RRIRGRPPRLPRPRPRPKPMPRP — within 0.2 log units, 0.419
- RRIRGRPPRLPRPRPRPSREPRP — within 0.2 log units, 0.51
- RRIRCRPPRLPRPRPRPHNMPRP — lower, -0.82
- RRIRFRPPRLPRPRPRPEIPPRP — within 0.2 log units, 0.163
- RRIRIRPPRLPRPRPRPGRCPRP — lower, -0.0543
- RRIRMRPPRLPRPRPRPRQYPRP — lower, -0.0556
- RRIRIRPPRLPRPRPRPVFAPRP — lower, 0.0576
- RRIRNRPPRLPRPRPRPRFGPRP — within 0.2 log units, 0.399
- RRIRDRPPRLPRPRPRPWWDPRP — lower, 0.083
- RRIRGRPPRLPRPRPRPVDGPRP — higher, 0.587
- RRIRYRPPRLPRPRPRPWGHPRP — lower, -0.275
- RRIRLRPPRLPRPRPRPWCNPRP — lower, -0.121
- RRIRKRPPRLPRPRPRPYNQPRP — lower, -0.312
- RRIRERPPRLPRPRPRPKVHPRP — lower, -0.196
- RRIRSRPPRLPRPRPRPWACPRP — lower, 0.0189
- RRIRVRPPRLPRPRPRPGSPPRP — within 0.2 log units, 0.187
- RRIRIRPPRLPRPRPRPTHTPRP — lower, -0.448
- RRIRVRPPRLPRPRPRPQNWPRP — lower, 0.0353
- RRIRGRPPRLPRPRPRPHEHPRP — higher, 1.13
- RRIRTRPPRLPRPRPRPRSLPRP — within 0.2 log units, 0.19
- RRIRMRPPRLPRPRPRPRMCPRP — lower, 0.0537
- RRIRRRPPRLPRPRPRPTFHPRP — lower, 0.0529
- RRIRYRPPRLPRPRPRPMKAPRP — lower, -0.000687
- RRIRYRPPRLPRPRPRPERMPRP — lower, -0.459
- RRIRGRPPRLPRPRPRPIRMPRP — lower, 0.0246
- RRIRCRPPRLPRPRPRPAFTPRP — lower, 0.0636
- RRIRGRPPRLPRPRPRPEWKPRP — higher, 1.3
- RRIRYRPPRLPRPRPRPISCPRP — lower, -0.202
- RRIRRRPPRLPRPRPRPKGPPRP — within 0.2 log units, 0.465
- RRIRFRPPRLPRPRPRPFCTPRP — lower, -0.19
- RRIRCRPPRLPRPRPRPPTIPRP — lower, -0.158
- RRIRARPPRLPRPRPRPPSDPRP — higher, 0.705
- RRIRIRPPRLPRPRPRPMYYPRP — lower, -0.32
- RRIRCRPPRLPRPRPRPAMEPRP — lower, 0.111
- RRIRKRPPRLPRPRPRPFRWPRP — lower, 0.0626
- RRIRIRPPRLPRPRPRPMTPPRP — lower, 0.0425
- RRIRPRPPRLPRPRPRPTLCPRP — lower, -0.0815
- RRIRTRPPRLPRPRPRPNSSPRP — lower, -0.13
- RRIRYRPPRLPRPRPRPDKFPRP — lower, -0.116
- RRIRCRPPRLPRPRPRPPMLPRP — lower, 0.0982
- RRIRARPPRLPRPRPRPIGAPRP — higher, 0.716
- RRIRFRPPRLPRPRPRPVGWPRP — higher, 0.62
- RRIRQRPPRLPRPRPRPMPHPRP — lower, -0.0205
- RRIRKRPPRLPRPRPRPPPVPRP — higher, 0.751
- RRIRARPPRLPRPRPRPALFPRP — higher, 0.61
- RRIRTRPPRLPRPRPRPMCLPRP — lower, 0.0631
- RRIRNRPPRLPRPRPRPVLAPRP — lower, 0.093
- RRIRGRPPRLPRPRPRPYNTPRP — within 0.2 log units, 0.328
- RRIRFRPPRLPRPRPRPQLGPRP — lower, 0.1
- RRIRYRPPRLPRPRPRPRQTPRP — lower, -0.0574
- RRIRLRPPRLPRPRPRPPTLPRP — within 0.2 log units, 0.4
- RRIRGRPPRLPRPRPRPYGMPRP — lower, 0.036
- RRIRVRPPRLPRPRPRPTTWPRP — lower, -0.0829
- RRIRDRPPRLPRPRPRPTGWPRP — higher, 1.21
- RRIRLRPPRLPRPRPRPRSVPRP — lower, -0.0722
- RRIRARPPRLPRPRPRPIQQPRP — lower, 0.0227
- RRIRIRPPRLPRPRPRPQIYPRP — lower, -1.08
- RRIRYRPPRLPRPRPRPTYFPRP — lower, -0.485
- RRIRLRPPRLPRPRPRPLNRPRP — lower, -0.317
- RRIRWRPPRLPRPRPRPIVQPRP — lower, 0.0969
- RRIRQRPPRLPRPRPRPEHHPRP — lower, -0.136
- RRIRTRPPRLPRPRPRPPVNPRP — lower, 0.0698
- RRIRVRPPRLPRPRPRPWLDPRP — within 0.2 log units, 0.183
- RRIRVRPPRLPRPRPRPAGIPRP — within 0.2 log units, 0.165
- RRIRFRPPRLPRPRPRPNVNPRP — lower, -0.375
- RRIRWRPPRLPRPRPRPNNTPRP — lower, -0.587
- RRIRGRPPRLPRPRPRPRSQPRP — higher, 1.13
- RRIRERPPRLPRPRPRPINDPRP — lower, -0.223
- RRIRRRPPRLPRPRPRPHWTPRP — lower, -0.12
- RRIRVRPPRLPRPRPRPYWWPRP — lower, -0.208
- RRIRIRPPRLPRPRPRPRYMPRP — lower, -0.114
- RRIRWRPPRLPRPRPRPKFNPRP — lower, -0.434
- RRIRNRPPRLPRPRPRPGCLPRP — lower, -0.000466
- RRIRFRPPRLPRPRPRPMALPRP — lower, -0.706
- RRIRQRPPRLPRPRPRPFLDPRP — lower, -0.372
- RRIRKRPPRLPRPRPRPTQGPRP — higher, 0.909
- RRIRIRPPRLPRPRPRPGWEPRP — lower, 0.0557
- RRIRDRPPRLPRPRPRPSPLPRP — lower, -0.126
- RRIRARPPRLPRPRPRPMRLPRP — higher, 1.29
- RRIRMRPPRLPRPRPRPKQRPRP — higher, 1.1
- RRIRCRPPRLPRPRPRPPPKPRP — higher, 1.51
- RRIRSRPPRLPRPRPRPCLKPRP — lower, 0.0091
- RRIRQRPPRLPRPRPRPATIPRP — lower, -0.123
- RRIRERPPRLPRPRPRPNCLPRP — lower, -0.297
- RRIRVRPPRLPRPRPRPGIMPRP — lower, -0.000355
- RRIRWRPPRLPRPRPRPRMDPRP — within 0.2 log units, 0.211
- RRIRGRPPRLPRPRPRPPQVPRP — higher, 0.791
- RRIRRRPPRLPRPRPRPIPNPRP — within 0.2 log units, 0.349
